4 molecules from US20240301386A1, “Soluble Guanylyl Cyclase (GC1) Mimetic Polypeptides and Methods of Use Thereof” (Rutgers, the State University of New Jersey, priority 2023, published 2024) can be followed below.

For one data set, the system named is Jurkat T cells. The data set is described as follows: Biotin-avidin switch assays of S-nitrosation in Jurkat T cells ± etoposide. Format: cell-based, human. As for the experimental part:
Jurkat cells were cultured in a 6-well plate at the density of 0.25×10^6/ml in complete medium RPMI 1640 from Corning (10-040-CV) supplemented with 10% FBS and Pen-Strep and incubated at 37° C. with 5% CO2 for 24 h. The cells were collected by centrifuging at 1000 g for 5 min, washed twice with serum-free medium, and re-suspended with 2 ml serum-free medium prior to peptide treatment.
Free thiols of proteins were blocked in lysis-blocking buffer containing 50 mM Tris, pH 7.5, 150 mM NaCl, 1% Triton X-100, 1 mM EDTA, 2% SDS, 0.1 mM neocuproine, 0.2 mM PSMF, and 40 mM N-ethylmaleimide (NEM) at 50° C. for 30 min in the dark. Excess NEM was removed using cold acetone precipitation. The protein pellets were generated by centrifugating at 14000 g for 10 min at 4° C. and washed 3 times using cold acetone. […]
For biotin-avidin switch assays: After 16 h incubation, the cells were washed twice with cold PBS and lysed in lysis-blocking buffer containing 50 mM Tris, pH 7.5, 150 mM NaCl, 1% Triton X-100, 1 mM EDTA, 2% SDS, 0.1 mM neocuproine, and 40 mM NEM supplemented with PMSF and protease inhibitor cocktail. The protein concentration was measured using the Bradford method. 50 μg of each lysate was analyzed by Western blot as starting material (inputs) and 200 μg proteins of each sample were subjected to the biotin switch and avidin assays, as described elsewhere herein. […]

A further data set has as its system caspase-3. The data set is described as follows: Caspase-3 activity assay in Jurkat T cells ± etoposide. Format: cell-based, human. The following applies: etoposide 8 μM 16 h compared to samples not treated with ETO. As for the experimental part:
The cells in suspension in 2 ml serum-free medium were treated with either 70% DMSO (20 μL, 0.7% final), scramble peptide, or inhibitory peptide at a final concentration of 10 μM and incubated at 37° C. for 1 h. After incubation, the cells were washed twice and incubated in complete medium at 37° C. for 8 h. The cells were then treated with (or without) etoposide (ETO) at 8 μM final at 37° C. for 16 h.
For Caspase-3 activity assays: After 16 h incubation, the cells were washed twice with cold PBS and lysed in the supplier's 1× lysis buffer (at 10 μL per 10^6 cells). After 15 min incubation on ice, the lysates were centrifuged at 16,000 g for 15 min at 4° C. and the supernatant collected. Caspase-3 activity was measured following the supplier's instructions (CASP3C-1KT, Sigma) after 2 and 3 h incubation.
Whether these observations correlated with an increased caspase-3 activity was next assessed with a colorimetric assay based on cleavage of the substrate […], under the same above conditions. […] It was concluded that disrupting the SNO-GC1→oTrx1→procaspase-3 transnitrosation cascade using a peptide inhibitory of the GC1/Trx1 interaction promotes Jurkat T-cells apoptosis.

The target in data set [1] is T1, Oxidized Trx1 (oTrx1), recombinant human Trx1 treated with 100 µM diamide, P10599.
T1 chain: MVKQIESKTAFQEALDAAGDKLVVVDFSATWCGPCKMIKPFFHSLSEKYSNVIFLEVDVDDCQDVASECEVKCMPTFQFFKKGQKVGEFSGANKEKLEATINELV

Data set [2] addresses T2, Oxidized GC1 (oGC1), recombinant human GC1 treated with 100 µM diamide, Q02153.
T2 chain 1: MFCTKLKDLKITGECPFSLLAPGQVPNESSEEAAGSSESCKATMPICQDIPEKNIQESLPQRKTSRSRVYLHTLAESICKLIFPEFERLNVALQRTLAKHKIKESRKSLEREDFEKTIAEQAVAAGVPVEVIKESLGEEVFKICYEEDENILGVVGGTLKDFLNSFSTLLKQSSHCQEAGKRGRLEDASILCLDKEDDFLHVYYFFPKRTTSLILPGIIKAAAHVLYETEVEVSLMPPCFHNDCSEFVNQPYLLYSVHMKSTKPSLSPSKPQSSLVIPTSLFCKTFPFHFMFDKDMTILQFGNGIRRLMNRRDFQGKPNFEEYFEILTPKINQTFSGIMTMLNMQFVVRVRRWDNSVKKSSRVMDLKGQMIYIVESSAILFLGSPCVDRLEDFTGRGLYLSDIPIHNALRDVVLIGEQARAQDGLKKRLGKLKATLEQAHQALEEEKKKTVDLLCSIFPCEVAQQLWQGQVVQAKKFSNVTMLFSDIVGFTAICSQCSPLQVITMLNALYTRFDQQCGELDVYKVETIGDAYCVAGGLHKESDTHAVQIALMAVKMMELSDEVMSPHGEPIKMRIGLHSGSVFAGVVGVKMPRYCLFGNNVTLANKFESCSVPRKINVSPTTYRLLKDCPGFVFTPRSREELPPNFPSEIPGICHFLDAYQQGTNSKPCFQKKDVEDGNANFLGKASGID
T2 chain 2: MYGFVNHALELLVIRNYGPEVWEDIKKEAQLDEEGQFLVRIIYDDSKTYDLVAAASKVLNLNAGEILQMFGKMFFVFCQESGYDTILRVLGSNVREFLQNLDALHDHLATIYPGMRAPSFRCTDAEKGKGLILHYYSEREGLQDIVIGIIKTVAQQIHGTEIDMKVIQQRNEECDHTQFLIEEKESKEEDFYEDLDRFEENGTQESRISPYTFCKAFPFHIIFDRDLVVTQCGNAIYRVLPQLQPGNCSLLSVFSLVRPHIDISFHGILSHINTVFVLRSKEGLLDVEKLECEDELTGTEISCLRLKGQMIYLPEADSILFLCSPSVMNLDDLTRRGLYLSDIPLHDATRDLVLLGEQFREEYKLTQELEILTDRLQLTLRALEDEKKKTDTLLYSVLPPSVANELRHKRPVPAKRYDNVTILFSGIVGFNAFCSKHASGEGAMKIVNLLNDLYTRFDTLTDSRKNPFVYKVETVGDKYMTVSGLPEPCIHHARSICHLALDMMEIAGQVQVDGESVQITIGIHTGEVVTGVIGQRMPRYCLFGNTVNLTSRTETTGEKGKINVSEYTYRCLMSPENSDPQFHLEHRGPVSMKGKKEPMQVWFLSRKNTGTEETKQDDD

Data set [3] has as its target T3, Purified recombinant human soluble guanylyl cyclase (GC1), Q02153.
T3 chain 1: T2 chain 1
T3 chain 2: T2 chain 2

For `COc1cc([C@@H]2c3cc4c(cc3[C@@H](O[C@@H]3O[C@@H]5CO[C@@H](C)O[C@H]5[C@H](O)[C@H]3O)[C@H]3COC(=O)[C@H]23)OCO4)cc(OC)c1O` [Etoposide], in the data set with Jurkat T cells (peptide 10 μM 1 h, etoposide 8 μM 16 h (FIG. 8A left panel)), the “global levels of S-nitrosation in Jurkat T cells” value is recorded as “did not affect”. Moreover, the “SNO-procaspase-3 level in Jurkat T cells” value in the data set on Jurkat T cells (peptide 10 μM 1 h ± etoposide 8 μM 16 h, avidin purified, compared to DMSO and scramble peptide (FIG. 8A right panel)) is reported as “slightly reduced”. For the same molecule, in the data set with caspase-3, the “caspase-3 activity in Jurkat cells treated with ETO” value was “significant increase”.

B1: Reduced GC1 (rGC1), recombinant human GC1 treated with 10 mM DTT (protein)
chain 1: T2 chain 1
chain 2: T2 chain 2
For the molecule B1, in data set [1], the “conversion of oTrx1 dimers into monomers (non-reducing gel, Western blot)” value is recorded as “rGC1 converted most of oTrx1 dimer into Trx1 monomers” and the “conversion of oTrx1 dimers into monomers in the presence of 125 µM scramble peptide” value is recorded as “the rGC1-dependent conversation of Trx1 from dimers to monomers was maintained in the presence of the scramble peptide”.

B2: Reduced Trx1 (rTrx1), recombinant human Trx1 treated with 10 mM DTT (protein)
chain: T1 chain
In the case of B2, in data set [2], the “conversion of oGC1 multimers into monomers (non-reducing gel, Western blot)” value was “rTrx1 converted oGC1 multimers into monomers to some extent” and the “conversion of oGC1 multimers into monomers in the presence of 125 µM scramble peptide” value is listed as “the reducing effect of Trx1 was maintained with the scramble peptide as control”.

B3: Thioredoxin 1 (Trx1) protein, purified (protein)
chain: T1 chain
As for B3, in data set [3], the “NO-stimulated GC1 activity (1 µM DEA-NO), purified GC1 + Trx1 1:7” value is given as “FIG. 3A first confirmed the increased NO-stimulated activity of GC1 by Trx1”; the “NO-stimulated GC1 activity, purified GC1 + Trx1 in the presence of peptide 1 (25 µM)” value is given as “Trx1-dependent increase of NO-stimulated GC1 activity was similarly blunted by the 3 peptides”; the “NO-stimulated GC1 activity, purified GC1 + Trx1 in the presence of peptide 2 (25 µM)” value is “Trx1-dependent increase of NO-stimulated GC1 activity was similarly blunted by the 3 peptides”; the “NO-stimulated GC1 activity, purified GC1 + Trx1 in the presence of peptide 3 (25 µM)” value is given as “Trx1-dependent increase of NO-stimulated GC1 activity was similarly blunted by the 3 peptides”. Moreover, the “NO-stimulated GC1 activity, purified GC1 + Trx1 in the presence of the scramble peptide (25 µM)” value in data set [3] is reported as “the scramble peptide had no effect”.
